From paper PMC3460959 come the findings set out here.

Where two headings read alike, the source gives them in different places.

Assay [1] deals with Substance P (FAM-SP) (Homo sapiens), P20366.
The target is the same in assay [2]. This is another data set of the same source.

Sequence of Substance P (FAM-SP) (Homo sapiens), P20366 (P20366 whole entry, looked up): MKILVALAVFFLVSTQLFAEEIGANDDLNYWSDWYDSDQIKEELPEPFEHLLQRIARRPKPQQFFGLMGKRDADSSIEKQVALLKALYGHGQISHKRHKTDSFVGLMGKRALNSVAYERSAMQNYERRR

B1: Neurokinin 1 receptor (NK1R), P25103 (protein)
chain: MDNVLPVDSDLSPNISTNTSEPNQFVQPAWQIVLWAAAYTVIVVTSVVGNVVVMWIILAHKRMRTVTNYFLVNLAFAEASMAAFNTVVNFTYAVHNEWYYGLFYCKFHNFFPIAAVFASIYSMTAVAFDRYMAIIHPLQPRLSATATKVVICVIWVLALLLAFPQGYYSTTETMPSRVVCMIEWPEHPNKIYEKVYHICVTVLIYFLPLLVIGYAYTVVGITLWASEIPGDSSDRYHEQVSAKRKVVKMMIVVVCTFAICWLPFHIFFLLPYINPDLYLKKFIQQVYLAIMWLAMSSTMYNPIIYCCLNDRFRLGFKHAFRCCPFISAGDYEGLEMKSTRYLQTQGSVYKVSRLETTISTVVGAHEEEPEDGPKATPSSLDLTSNCSSRSDSKTMTESFSFSSNVLS
As a reminder, the Kd is a measure of binding affinity in units of concentration. Lower therefore signals a tighter complex. Take B1: the Kd in assay [1] came out at 83 nM; in assay [2], 34 nM.
